Data on five molecules can be found in patent EP1720907B1 (MorphoSys AG, dated 2015).

Values joined by “and” are separate entries in the source; they are usually repeats but may differ in a detail not shown here. Identical values can stand only once.

This experiment addresses T1, human CD38 (human, UniProt P28907 1-300).
T1 sequence: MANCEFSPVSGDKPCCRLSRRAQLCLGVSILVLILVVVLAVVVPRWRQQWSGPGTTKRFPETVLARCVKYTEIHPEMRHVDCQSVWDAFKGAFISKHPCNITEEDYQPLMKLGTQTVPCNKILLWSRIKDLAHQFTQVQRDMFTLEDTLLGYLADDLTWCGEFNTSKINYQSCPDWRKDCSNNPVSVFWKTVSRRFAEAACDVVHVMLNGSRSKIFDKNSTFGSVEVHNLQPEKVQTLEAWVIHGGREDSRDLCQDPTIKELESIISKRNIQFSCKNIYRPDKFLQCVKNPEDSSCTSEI
Kind of experiment: cell-based or functional assay.

In the case of Chimeric OKT10 (antibody), the ADCC EC50 [nM], LP-1 was 5.23 nM and the ADCC EC50 [nM], RPMI8226 was 4.1 nM.

B1: MOR03100 human IgG1 (antibody, V domains shown)
VH: QVQLVESGGGLVQPGGSLRLSCAASGFTFSSNGMSWVRQAPGKGLEWVSNISYLSSSTYYADSVKGRFTISRDNSKNTLYLQMNSLRAEDTAVYYCARFYGYFNYADVWGQGTLVTVSS
VL: DIELTQPPSVSVAPGQTARISCSGDNIGHYYASWYQQKPGQAPVLVIYRDNDRPSGIPERFSGSNSGNTATLTISGTQAEDEADYYCQSYDYLHDFVFGGGTKLTVLG
Turning to B1, the “ADCC EC50 [nM], LP-1” value worked out at 1 nM; the “ADCC EC50 [nM], RPMI8226” value was determined as 0.28 nM; the “CDC EC50 [nM], CHO-transfectants” value was 10.9 nM and 13.6 nM.

B2: MOR03077 human IgG1 (antibody, V domains shown)
VH: QVQLVQSGAEVKKPGASVKVSCKASGYTFTSYSINWVRQAPGQGLEWMGYIDPNRGNTNYAQKFQGRVTMTRDTSISTAYMELSSLRSEDTAVYYCAREYIYFIHGMLDFWGQGTLVTVSS
VL: DIVMTQSPLSLPVTPGEPASISCRSSQSLLFIDGNNYLNWYLQKPGQSPQLLIYLGSNRASGVPDRFSGSGSGTDFTLKISRVEAEDVGVYYCQQYSSKSATFGQGTKVEIKR
For the molecule B2, the “ADCC EC50 [nM], LP-1” value was found to be 0.6 nM; the “ADCC EC50 [nM], RPMI8226” value stood at 0.08 nM; the “CDC EC50 [nM], CHO-transfectants” value is 0.8 nM and 0.94 nM.

B3: MOR03080 human IgG1 (antibody, V domains shown)
VH: QVQLVESGGGLVQPGGSLRLSCAASGFTFSSYGMHWVRQAPGKGLEWVSNIYSDGSNTFYADSVKGRFTISRDNSKNTLYLQMNSLRAEDTAVYYCARNMYRWPFHYFFDYWGQGTLVTVSS
VL: DIELTQPPSVSVAPGQTARISCSGDNIGNKYVSWYQQKPGQAPVVVIYGDNNRPSGIPERFSGSNSGNTATLTISGTQAEDEADYYCSSYDSSYFVFGGGTKLTVLG
In the case of B3, the “ADCC EC50 [nM], LP-1” value is 0.17 nM; the “ADCC EC50 [nM], RPMI8226” value was determined as 0.05 nM; the “CDC EC50 [nM], CHO-transfectants” value is 3.2 nM and 2.93 nM.

B4: MOR03079 human IgG1 (antibody, V domains shown)
VH: QVQLVESGGGLVQPGGSLRLSCAASGFTFSNYGMHWVRQAPGKGLEWVSNIRSDGSWTYYADSVKGRFTISRDNSKNTLYLQMNSLRAEDTAVYYCARRYWSKSHASVTDYWGQGTLVTVSS
VL: DIQMTQSPSSLSASVGDRVTITCRASQDISAFLNWYQQKPGKAPKLLIYKVSNLQSGVPSRFSGSGSGTDFTLTISSLQPEDFATYYCQQAYSGSITFGQGTKVEIKR
For the molecule B4, the “ADCC EC50 [nM], LP-1” value was 0.09 nM and the “ADCC EC50 [nM], RPMI8226” value was 0.04 nM.
